Reference: the DeepSol protein solubility set

assay: soluble on expression in E. coli; label from the status in PepcDB or PDB records

| Sequence | soluble on expression in E. coli |
| --- | --- |
| MGSDKIHHHHHHMLNMSNVPNDSVEEDGRLPTGKLPSAIGKNHRIAVVDTHFHLWKSQEIAPPSGIMADPSLFRDFDWSDYELAMQGVALEAAIHVQVHHGSEKAKSEYGRVERFAAEHAPIAGMIAWAPLESPGVEREIAELAQSPLVAGVRRLTQQEPDELFCARPQFVAGAKLLASYGLVCEVCVLEHQLKGVIALASACPELTIILDHLGKPHLAEPPTEHWLENMRILGMLENVVCKVAPTPLWASDPPLTAAHAAPFIEYVAEHFGWDRLIYGSNWPPLRILTDDASQWADIVFKTLHWAKADELGRLFSENARRIFRLNKGHR | not soluble |
| MGDVVADALEKLSADQIEQFRKYFNMFDKEGKGYIRATQVGQILRTMGQAFEERDLKQLIKEFDADGSGEIEFEEFAAMVANFVVNNENDEGLEEELREAFRLYDKEGNGYINVSDLRDILRALDDNVSEEELDEMIAEIDADGSGTVDFDEFMEMMSGE | soluble |
| VELKVKRFPISRYQANNEASDDLIKGAFVGLTNVTFSFAGNIVRVVDTGMDILYNLQPIDEFANSITNVSKTVYKTLKKN | not soluble |
| MRKLKYHEKKLIKKVNFLEWKREGNHRENEITYRYHMGSRDDYKKYSGLCRMVQKLTNIMKQMDPADPFRIQMTDMLLEKLYNMGVIPTRKSLTLTERLSVSSFCRRRLSTVLVHLKFAEHHKEAVTYIEQGHVRVGPETITDPAFLVTRNMEDFITWVDSSKIKRKVLEYNDTLDDYDMLA | not soluble |
| MPLELTQSRVQKIWVPVDHRPSLPRSCGPKLTNSPTVIVMVGLPARGKTYISKKLTRYLNWIGVPTKVFNVGEYRREAVKQYSSYNFFRPDNEEAMKVRKQCALAALRDVKSYLAKEGGQIAVFDATNTTRERRHMILHFAKENDFKAFFIESVCDDPTVVASNIMEVKISSPDYKDCNSAEAMDDFMKRISCYEASYQPLDPDKCDRDLSLIKVIDVGRRFLVNRVQDHIQSRIVYYLMNIHVQPRTIYLCRHGENEHNLQGRIGGDSGLSSRGKKFASALSKFVEEQNLKDLRVWTSQLKSTIQTAEALRLPYEQWKALNEIDAGVCEELTYEEIRDTYPEEYALREQDKYYYRYPTGESYQDLVQRLEPVIMELERQENVLVICHQAVLRCLLAYFLDKSAEEMPYLKCPLHTVLKLTPVAYGCRVESIYLNVESVCTHRERSEDAKKGPNPLMRRNSVTPLASPEPTKKPRINSFEEHVASTSAALPSCLPPEVPTQLPGQNMKGSRSSADSSRKH | soluble |
| MSLLKLFDAHFHIIDYRFPLIANQSYLPPEFTVEDYLQRAKPLNICGGAVVSGSFQAFDQTYLLTALSVLGPNFVGVTQLPATVSDEEIIQLNQHGIRAVRFNLKRGGSESIHQLKYFAHRIYEMVRWHVEIYVDSKELGDLTNLLLELPAVSIDHLGLSQSGFSELLHLVEHGIKIKASGFGRVDFDVKKALQTIAQISPDALLFGTDLPSTRAPLPFLDSDIQLIQDLFDEELTEKILYRNACNFYSKNEGHHHHHH | soluble |
| MNDEIKVSVLIITYNQARFIKKAIESALEQKTKFKYEIIVMDDCSSDSTIKIAGKYAEKYTDIIKVYSNNKNLGITKNYKEGFKKCRGEYIAVLEGDDYWNNKQKLQIQSNFLDRHKNFSAVFNRYIIYNAINNSKATQAWRSNTSYETITIEQLTRGNVIGNFSTCMYRKSCVDKVKESLYDMLVYDWMFNMVIAEQKPIAYLPQICSVYRIHSRGTWMGNSVKNRLALTIKLIDVYNAFFGFKYNSNFKLLKKNVYKQLINLEHHHHHH | soluble |
| MASTANMISQLKKLSIAEPAVAKDSHPDVNIVDLMRNYISQELSKISGVDSSLIFPALEWTNTMERGDLLIPIPRLRIKGANPKDLAVQWAEKFPCGDFLEKVEANGPFIQFFFNPQFLAKLVIPDILTRKEDYGSCKLVENKKVIIEFSSPNIAKPFHAGHLRSTIIGGFLANLYEKLGWEVIRMNYLGDWGKQFGLLAVGFERYGNEEALVKDPIHHLFDVYVRINKDIEEEGDSIPLEQSTNGKAREYFKRMEDGDEEALKIWKRFREFSIEKYIDTYARLNIKYDVYSGESQVSKESMLKAIDLFKEKGLTHEDKGAVLIDLTKFNKKLGKAIVQKSDGTTLYLTRDVGAAMDRYEKYHFDKMIYVIASQQDLHAAQFFEILKQMGFEWAKDLQHVNFGMVQGMSTRKGTVVFLDNILEETKEKMHEVMKKNENKYAQIEHPEEVADLVGISAVMIQDMQGKRINNYEFKWERMLSFEGDTGPYLQYAHSRLRSVERNASGITQEKWINADFSLLKEPAAKLLIRLLGQYPDVLRNAIKTHEPTTVVTYLFKLTHQVSSCYDVLWVAGQTEELATARLALYGAARQVLYNGMRLLGLTPVERM | soluble |
| SQDPSGDKVCRAGGEEDGEDGQHTSRVHDTEADPHHTEASSHRTEGSSHLTETSSRPSEAENGHDNSPHVNRAQDVGTQASPQGSLNSRVPVEARVVVEEAAIAPQGEQAPIIPGPSGDAATTAGSRLLEFSVTVPFRTAVEANIACRTLASNIQQQQVMVQQEFTVNDTILTVRWTTEDPVLFRTSINAFLDQLSLVVRNIPRPVFMAVFKQGRGRNN | soluble |
| MDEEMLIPEEEYQKSGVHIGTQVKSSDMKPYIFKIRNDGLYILDVKKTNSKLIVAGKMLARFEPQDILVVAQRQYAFRPVAKFAEVTGATAITGRFNPGTLTNPSLKFYKEVKVIIVTDPLADVQAMKEAVKIGIPIIALCDANNKTDFVDLIIPTNNKGRRSLAVIYWLLAREILKNRGTITSYDQFKYTIDDFEAQI | not soluble |
| EDICFLLADGRVYVAANQSFEPELLLSSSADSRLYVTDRGLFICAENRIYFIEKGRKTTQFPIADVLGVGAMNESNTAYIALGEEGLASLLLAEGSTAEAMPVAFDGPGDNDFYEMRFSHGRLYAASGLWGTNLMGHAGMVKLYDGNRWTNFDKKTVQEQLGGGFSFNDAIDIAVSNGDPDHFFVGTWGNGLFEFKDGKAIARYSGNETAIAECNPGDARVKAIAFDNKGNLWGTLGAVGKNIFMYDPQSSTWHSFSYPDVANLASFGNMIILPNGDKWVNILHRSGGSTRKGVLIFNDRGTPETTSDDSHLYVEQFVNRLGAAIGHKTIYAMAVDHNGSVWMGSDIGIFGVYNAAGVLSSTSTPIAVRPVGGEEPNLYYVLDKVTVTDIVVDKLNHKWVATQGTGLYLLSEDCSKILAQFTVENSPLLSNNILSLALNDDNGLLYIGTADGLMTFQTGTGSGSASELDGVYVYPNPLRPEYPDGVTIAGLQAGCSVKITDTTGRLLYQTESVTTEVKWNARGADGNRVASGVYAVAVYDPVSKKSKLIRFAVIR | not soluble |
| MGSDKIHHHHHHMDRSERLIQLISEEGIDAFLIMNIENSARASSVYFSGFTGSFSIILISENTRLLITDSRYTVQAKQETDFEVREVKGGDFIDVLKKTVNDLKIKTIALEEERVSLSLFRRISSAFGDRKFIGIDDEVKQMRMVKDEGEIEKIKQAIEISERAFLETVQQIRAGMTEKEIAALLEYTMRKEGAEGVAFDTIVASGCRSALPHGKASDKVVERGDVIVIDFGATYENYCADITRVVSIGEPSDEVKEVHSIVLEAQERALKIAKAGVTGKLLDSVAREFIREKGYGEFFGHSLGHGIGLEVHEGPAISFRNDSPLPENVVFTVEPGIYLEGKFGIRIEEDVVLKEQGCEILTTLPRSIFVV | not soluble |
| MSLAQGIIENHLSKRSALLEQEKTSRHDYAFKQSMSPVAKTAAKVLADIRKKELKSIWSPTTTSNEKRDLKDVTFPGMSFTLSRDRMQKTALWKIVSAMPKGCLLHAHMEAMIDIDWMIEQAIELPGYYISSPVPLCPRTGSAGKWSEPFQFSYRPRLGSGANARNGSEPEISIWQAGYTPGRLVPVAAAAKMYPGGVEAFKAWAVSRMTINEEEALEHHHGIDDVWDKFRSCFLAIGGLFFTEPIFRRCIPRLLQQLHDDGIKYVELRLAPNPFYREGSNEAEPDFLYFLQCFQEEVDAYMSSPTGRGFWGAKIIWTAIRSFPDDLIKESMIHCLNSKKAYPSVITGFDFVGQEDAGRPLVDLLPLCKWFQQQCADEQLQIPFFLHAGECLGDGNDTDSNLVDAILLNSRRIGHAFSLYKHPLLIDLVKDKNILIEMCPISHEVLRLTSNILMHPMPALQARGVAVSLNNDDPAVLGHGKNGLSHDFYQVTAAFENTGLAGLATMAEDSIRWAAFEDETDSEWLQGIDGKGNGLKASRLAEWRTAFDEWCAWVVQEFGAESQIEGHHHHHH | soluble |
| MGSDKIHHHHHHMYQIQIRIWFNFISKNKHHMLGTMSDSYDFFLSMSEITFALDPKYEFDKDIGCVLSLIKNTKELRFRINQYINKYKNKSPSLNRLNTFINTLEENENFYLLPAIENVSQTQLIKLQTSLSLVHLDELGKDAYIKSFNSNFSDFIDQYSMNGIDPKEVKGKKKIGEGFKANRVCRFCNNKNEKPTTFAKEAHAISESLGNKKIILNEECDLCNEYFDQNIERDIDTYLKLYSSFFRVKNKDNKVSKIKGKNFSFEYINTTIDGHDRHIDFVLAHTPTNSESCNSDSEPPKNVDLCFHQKIRKQNIYKSLVKFALSVIHDRKDLSEFNKAIEWIKSPTKFYEQLPKIAILKNYQFYCTEPALIVYISKNKKQGLPYAVGEFHYTFLTYIFIIPLFKSDEVEFSQQNNFDDFIKFFPQFKRMDEWSFEDFSDYEEKEFVLNMILSQRDEG | not soluble |
| MHHHHHHSSGVDLGTENLYFQSNAMLDPLDILTNIDDVLPYYQAIFSAEEQKVVGYEVLGRILADSEIQSLGPFFLDAGIPEEYKLEVDNRIIRQALDRFLEADSDLLIFMNQDANLLMLDHGESFLELLKEYEAKGIELHRFVLEITEHNFEGDIEQLYHMLAYYRTYGIKIAVDNIGKESSNLDRIALLSPDLLKIDLQALKVSQPSPSYEHVLYSISLLARKIGAALLYEDIEANFQLQYAWRNGGRYFQGYYLVSPSETFLERDVLKQRLKTEFHQFITHEKKKLETVYEHSEQFYKRVHQAVTSLRKNNLSSDDDFIKKLAEELTDCSFRIYMCDEEGDQLTGNVFKQDGEWIYQPEYAEKNWSWRPYFLENIMRMRNLRKGFFSDLYSDLETGEMIRTFSYPMDDQMYLFIDLPYSYLYEQDGLI | soluble |
| SLYATPIGYADTRFETAADAPRQGVETPYAANVQVYESFRGGLVGLEPDDRVVVVWWADDADRDVLAVRDGDRGVFTTRSPARPNPVCITPCELLAVDAADGTLAIRGWIWRTARRSWI | soluble |
| MVIRMAYSELYWQKEEVMPKKELEELQLKRLRWVVRHAYENVAHYRRKLKEAGVHPDDIKKREDIAKIPFTTKKDFAENYPFGLFAVPKEEIVRLHTSSGTTGKPKVVGYTANDLENWINLVARCLYMVGVRKHDIFQNMANYAFFTGGLGIHDGAERIGAMVIPAGVGNTERQVRCMADFGTTAIHSTPSYALHVKEVAEELGVDDKLSLRIGCFGAEPWSENTRKRLEDAFNIKAFDSYGLSEMNGPGVAFECEEQHGLHIWADHYFIEIIDPQTGEPLSEGEKGELVLTPLTKEALPVLRYRTGDITYIMDDECSCGRTHPKIHRILGRSDDMIIVRGINVFPSQIEHVLMQIPEVGDHFQVVITRNGTLDEITVRVEVRDELFTGELFDLQRLQQKVQRELQKELGLRTNVELVEKGTIERSKGKAKRVLDLREEL | not soluble |
| MDTEKLMKAGEIAKKVREKAIKLARPGMLLLELAESIEKMIMELGGKPAFPVNLSINEIAAHYTPYKGDTTVLKEGDYLKIDVGVHIDGFIADTAVTVRVGMEEDELMEAAKEALNAAISVARAGVEIKELGKAIENEIRKRGFKPIVNLSGHKIERYKLHAGISIPNIYRPHDNYVLKEGDVFAIEPFATIGAGQVIEVPPTLIYMYVRDVPVRVAQARFLLAKIKREYGTLPFAYRWLQNDMPEGQLKLALKTLEKAGAIYGYPVLKEIRNGIVAQFEHTIIVEKDSVIVTQDMINKST | soluble |
| MIEIPSDLHKDLVPLVFLLGDWAGAGVHDFPGAEKCNFGQEVSFTHDGRDFLEYQSHTWVLDNDGNKVRPLESEHGFWRIDANRKVEVTMTRDDGVIEIWYGELADQKPQIDLVTDAVARTAASQPYTGGKRLYGYVKSDLMWVGEKQTPEVELRPYMSAHLKKVVTPEDVERWAKALPDDMPDDGIAFFKLEHHHHHH | not soluble |
